Experimental data reported in publication PMC13544220, “Glycemic and bodyweight effects of GIPR coding variation reflect differences in surface expression and intrinsic functional impairment” (Science Advances, 2026).

Assays:
Assay type in all cases: cell-based, human
[1] = tested on: wild-type and variant SNAP-GIPR; test: Constitutive and agonist-mediated internalization, reversible SNAP-tag labelling, AD293 cells; set-up: key to Internalisation, Vehicle / Internalisation, +GIP / Internalisation, GIP-only: % internalization: residual fluorescence after Mesna vs pre-Mesna; Surface expression: unit not given here; conditions: Mean; for +GIP internalisation (100 nM) / GIP-specific internalisation (100 nM) / Constitutive internalisation (100 nM) / Surface expression: Fig 4E; for +GIP internalisation (100 nM) / GIP-specific internalisation (100 nM): GIP 100 nM; for Internalisation, +GIP / Internalisation, GIP-only / Internalisation, Vehicle: Fig S4C, AD293
Summary of the method: (§1)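 % internalization = residual specific fluorescence after Mesna / pre-Mesna value. Imaging in TNE buffer pH 8.6; second image 10 min post-Mesna.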

[2] = tested on: wild-type and variant SNAP-GIPR; test: Single-concentration GIP cAMP response by HTRF in INS-1 cells; conditions: Fig S3E, mean
Description: (§2) All variants were tested in parallel on each occasion to control for transfection efficiency differences between experiments.

[3] = tested on: wild-type and variant SNAP-GIPR; test: cADDis cAMP imaging in AD293 cells, ensemble, expression-matched and per decile; conditions: Fig S3F, cADDis, mean
Summary of the method: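 Per-cell cAMP from cADDis intensity over time, with cells excluded by IBMX/FSK response criteria. Expression matching used wild-type surface-SNAP deciles, top and bottom trimmed, mean of decile means. Ensemble values ignore deciles. Wide-field imaging at 37 °C in KRBH with 6 mM glucose, 0.1% BSA, 24 h post-transfection in AD293.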

[4] = tested on: wild-type and variant SNAP-GIPR; test: Surface SNAP-GIPR expression (SNAP-tag labelling) in AD293 cells; conditions: for AD293 Surface: Fig S3E, mean; for Surface SNAP-GIPR expression: sheet Fig 1C;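 for all read-outs here: scaled to the experimental average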
Summary of the method: (§3)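 Surface GIPR is quantified from wide-field images after labelling intact transfected cells with a membrane-impermeant SNAP probe at 500 nM for 10 min at room temperature. Specific signal, corrected for nontransfected cells, is normalized to the experiment-wide average or to wild-type.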

[5] = tested on: wild-type and variant SNAP-GIPR; test: Constitutive and agonist-mediated internalization, reversible SNAP-tag labelling, INS-1 cells; set-up: key to Internalisation, GIP-only / Internalisation, Vehicle / Internalisation, +GIP: % internalization: residual fluorescence after Mesna vs pre-Mesna; conditions: Mean; for +GIP internalisation (100 nM) / GIP-specific internalisation (100 nM) / Constitutive internalisation (100 nM): Fig 4G; for +GIP internalisation (100 nM) / GIP-specific internalisation (100 nM): GIP 100 nM; for Internalisation, +GIP / Internalisation, GIP-only / Internalisation, Vehicle: Fig S4C, INS-1
Summary of the method: as §1

[6] = tested on: wild-type and variant SNAP-GIPR; test: Surface SNAP-GIPR expression (SNAP-tag labelling) in INS-1 cells; conditions: Fig 4G; Mean
Summary of the method: as §3

[7] = tested on: wild-type and variant SNAP-GIPR; test: Single-concentration GIP cAMP response by HTRF in AD293 cells; conditions: Fig S3F, HTRF, mean;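 note: ratio to experiment-wide average response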
Description: as §2

[8] = column repeated, paired with cAMP 100 nM

B1: R217L (protein, UniProt P48546 22-466, looked up, variant R217L)
Gastric inhibitory …: RAETGSKGQTAGELYQRWERYRRECQETLAAAEPPSGLACNGSFDMYVCWDYAAPNATARASCPWYLPWHHHVAAGFVLRQCGSDGQWGLWRDHTQCENPEKNEAFLDQRLILERLQVMYTVGYSLSLATLLLALLILSLFRRLHCTRNYIHINLFTSFMLRAAAILSRDRLLPRPGPYLGDQALALWNQALAACLTAQIVTQYCVGANYTWLLVEGVYLHSLLVLVGGSEEGHFRYYLLLGWGAPALFVIPWVIVRYLYENTQCWERNEVKAIWWIIRTPILMTILINFLIFIRILGILLSKLRTRQMRCRDYRLRLARSTLTLVPLLGVHEVVFAPVTEEQARGALRFAKLGFEIFLSSFQGFLVSVLYCFINKEVQSEIRRGWHHCRLRRSLGEEQRQLPERAFRALPSGSGPGEVPTSRGLSSGTLPGPGNEASRELESYC
[1]
  +GIP internalisation (100 nM): 0.224
  GIP-specific internalisation (100 nM): 0.04046
  Constitutive internalisation (100 nM): 0.1836
  Surface expression: 0.4265
  Internalisation, +GIP: 55.082
  Internalisation, GIP-only: 10.4684
  Internalisation, Vehicle: 44.6136
[2]
  INS-1 cAMP (100 nM): 1.196
[3]
  AD293 100 pM cADDis: 17.6282
  AD293 100 nM cADDis: 34.7
[4]; [8]
  AD293 Surface: 0.4259
[4]; paired with cAMP 100 pM
  AD293 Surface: 0.4259
[4]; replicate 1
  Surface SNAP-GIPR expression: 0.4201
[4]; replicate 2
  Surface SNAP-GIPR expression: 0.7236
[4]; replicate 3
  Surface SNAP-GIPR expression: 0.824
[4]; replicate 4
  Surface SNAP-GIPR expression: 0.3234
[4]; replicate 5
  Surface SNAP-GIPR expression: 0.3781
[4]; replicate 6
  Surface SNAP-GIPR expression: 0.5304
[4]; replicate 7
  Surface SNAP-GIPR expression: 0.6162
[4]; replicate 8
  Surface SNAP-GIPR expression: 0.6634
[4]; replicate 9
  Surface SNAP-GIPR expression: 0.3807
[4]; replicate 10
  Surface SNAP-GIPR expression: 0.4129
[4]; replicate 11
  Surface SNAP-GIPR expression: 0.358
[4]; replicate 12
  Surface SNAP-GIPR expression: 0.3678
[4]; replicate 13
  Surface SNAP-GIPR expression: 0.04028
[4]; replicate 14
  Surface SNAP-GIPR expression: 0.3517
[4]; replicate 15
  Surface SNAP-GIPR expression: 0.3652
[4]; replicate 16
  Surface SNAP-GIPR expression: 0.3999
[4]; replicate 17
  Surface SNAP-GIPR expression: 0.3288
[4]; replicate 18
  Surface SNAP-GIPR expression: 0.3912
[4]; replicate 19
  Surface SNAP-GIPR expression: 0.3034
[4]; replicate 20
  Surface SNAP-GIPR expression: 0.3764
[4]; replicate 21
  Surface SNAP-GIPR expression: 0.4615
[4]; replicate 22
  Surface SNAP-GIPR expression: 0.364
[4]; replicate 23
  Surface SNAP-GIPR expression: 0.3963
[4]; replicate 24
  Surface SNAP-GIPR expression: 0.3543
[4]; replicate 25
  Surface SNAP-GIPR expression: 0.4738
[4]; replicate 26
  Surface SNAP-GIPR expression: 0.4835
[4]; replicate 27
  Surface SNAP-GIPR expression: 0.4338
[4]; replicate 28
  Surface SNAP-GIPR expression: 0.5117
[4]; replicate 29
  Surface SNAP-GIPR expression: 0.4222
[4]; replicate 30
  Surface SNAP-GIPR expression: 0.4733
[4]; replicate 31
  Surface SNAP-GIPR expression: 0.4841
[4]; replicate 32
  Surface SNAP-GIPR expression: 0.4011
[4]; replicate 33
  Surface SNAP-GIPR expression: 0.4465
[4]; replicate 34
  Surface SNAP-GIPR expression: 0.4033
[4]; replicate 35
  Surface SNAP-GIPR expression: 0.2194
[4]; replicate 36
  Surface SNAP-GIPR expression: 0.2502
[4]; replicate 37
  Surface SNAP-GIPR expression: 0.3794
[4]; replicate 38
  Surface SNAP-GIPR expression: 0.4678
[4]; replicate 39
  Surface SNAP-GIPR expression: 0.4904
[4]; replicate 40
  Surface SNAP-GIPR expression: 0.4789
[4]; replicate 41
  Surface SNAP-GIPR expression: 0.5101
[5]
  +GIP internalisation (100 nM): 0.2239
  GIP-specific internalisation (100 nM): 0.03772
  Constitutive internalisation (100 nM): 0.1862
  Internalisation, +GIP: 51.715
  Internalisation, GIP-only: 8.862
  Internalisation, Vehicle: 42.8533
[6]
  Surface expression: 0.4654
[7]
  AD293 100 pM HTRF: 0.09215
  AD293 100 nM HTRF: 1.142

B2: L262H (protein, UniProt P48546 22-466, looked up, variant L262H)
Gastric inhibitory …: RAETGSKGQTAGELYQRWERYRRECQETLAAAEPPSGLACNGSFDMYVCWDYAAPNATARASCPWYLPWHHHVAAGFVLRQCGSDGQWGLWRDHTQCENPEKNEAFLDQRLILERLQVMYTVGYSLSLATLLLALLILSLFRRLHCTRNYIHINLFTSFMLRAAAILSRDRLLPRPGPYLGDQALALWNQALAACRTAQIVTQYCVGANYTWLLVEGVYLHSLLVLVGGSEEGHFRYYLLHGWGAPALFVIPWVIVRYLYENTQCWERNEVKAIWWIIRTPILMTILINFLIFIRILGILLSKLRTRQMRCRDYRLRLARSTLTLVPLLGVHEVVFAPVTEEQARGALRFAKLGFEIFLSSFQGFLVSVLYCFINKEVQSEIRRGWHHCRLRRSLGEEQRQLPERAFRALPSGSGPGEVPTSRGLSSGTLPGPGNEASRELESYC
[1]
  +GIP internalisation (100 nM): 0.2171
  GIP-specific internalisation (100 nM): 0.04083
  Constitutive internalisation (100 nM): 0.1763
  Surface expression: 0.3728
  Internalisation, +GIP: 58.197
  Internalisation, GIP-only: 10.9885
  Internalisation, Vehicle: 47.2085
[2]
  INS-1 cAMP (100 nM): 0.9739
[3]
  AD293 100 pM cADDis: 18.6863
  AD293 100 nM cADDis: 34.26
[4]; [8]
  AD293 Surface: 0.4082
[4]; paired with cAMP 100 pM
  AD293 Surface: 0.4082
[4]; replicate 1
  Surface SNAP-GIPR expression: 0.05586
[4]; replicate 2
  Surface SNAP-GIPR expression: 0.3975
[4]; replicate 3
  Surface SNAP-GIPR expression: 0.3851
[4]; replicate 4
  Surface SNAP-GIPR expression: 0.346
[4]; replicate 5
  Surface SNAP-GIPR expression: 0.2997
[4]; replicate 6
  Surface SNAP-GIPR expression: 0.4709
[4]; replicate 7
  Surface SNAP-GIPR expression: 0.6801
[4]; replicate 8
  Surface SNAP-GIPR expression: 0.6962
[4]; replicate 9
  Surface SNAP-GIPR expression: 0.3552
[4]; replicate 10
  Surface SNAP-GIPR expression: 0.4769
[4]; replicate 11
  Surface SNAP-GIPR expression: 0.4805
[4]; replicate 12
  Surface SNAP-GIPR expression: 0.4059
[4]; replicate 13
  Surface SNAP-GIPR expression: 0.3345
[4]; replicate 14
  Surface SNAP-GIPR expression: 0.4406
[4]; replicate 15
  Surface SNAP-GIPR expression: 0.3425
[4]; replicate 16
  Surface SNAP-GIPR expression: 0.4438
[4]; replicate 17
  Surface SNAP-GIPR expression: 0.4347
[4]; replicate 18
  Surface SNAP-GIPR expression: 0.4011
[4]; replicate 19
  Surface SNAP-GIPR expression: 0.3575
[4]; replicate 20
  Surface SNAP-GIPR expression: 0.2679
[4]; replicate 21
  Surface SNAP-GIPR expression: 0.3532
[4]; replicate 22
  Surface SNAP-GIPR expression: 0.4093
[4]; replicate 23
  Surface SNAP-GIPR expression: 0.4836
[4]; replicate 24
  Surface SNAP-GIPR expression: 0.3698
[4]; replicate 25
  Surface SNAP-GIPR expression: 0.4044
[4]; replicate 26
  Surface SNAP-GIPR expression: 0.4747
[4]; replicate 27
  Surface SNAP-GIPR expression: 0.4781
[4]; replicate 28
  Surface SNAP-GIPR expression: 0.4405
[4]; replicate 29
  Surface SNAP-GIPR expression: 0.3368
[4]; replicate 30
  Surface SNAP-GIPR expression: 0.4516
[4]; replicate 31
  Surface SNAP-GIPR expression: 0.3843
[4]; replicate 32
  Surface SNAP-GIPR expression: 0.4196
[4]; replicate 33
  Surface SNAP-GIPR expression: 0.4081
[4]; replicate 34
  Surface SNAP-GIPR expression: 0.4658
[4]; replicate 35
  Surface SNAP-GIPR expression: 0.5726
[4]; replicate 36
  Surface SNAP-GIPR expression: 0.3172
[4]; replicate 37
  Surface SNAP-GIPR expression: 0.2985
[4]; replicate 38
  Surface SNAP-GIPR expression: 0.4456
[4]; replicate 39
  Surface SNAP-GIPR expression: 0.3825
[4]; replicate 40
  Surface SNAP-GIPR expression: 0.3992
[4]; replicate 41
  Surface SNAP-GIPR expression: 0.3665
[5]
  +GIP internalisation (100 nM): 0.2099
  GIP-specific internalisation (100 nM): 0.0574
  Constitutive internalisation (100 nM): 0.1525
  Internalisation, +GIP: 50.32
  Internalisation, GIP-only: 13.8767
  Internalisation, Vehicle: 36.4433
[6]
  Surface expression: 0.4629
[7]
  AD293 100 pM HTRF: 0.1729
  AD293 100 nM HTRF: 1.14
